# Like-named read-outs stand apart in the source and are kept apart here.
# Columns and labels:
# [1] = tested on: IgE immunoglobulin, P01854-1; conditions: saturating IgE
# [2] = tested on: IgE immunoglobulin, P01854-1; conditions: n at position 18 is 2-aminopurine replacing C [18 (2-aminopurine replacing C)]; PAGE purified, saturating IgE; affinity stated comparable to unmodified aptamer; screening buffer 20 mM Tris pH 7.1, 140 mM NaCl, 5 mM KCl, 10 mM CaCl2, 10 mM …
# IgE immunoglobulin, P01854-1, sequence (P01854 other isoform, or with tags, fused parts or gaps): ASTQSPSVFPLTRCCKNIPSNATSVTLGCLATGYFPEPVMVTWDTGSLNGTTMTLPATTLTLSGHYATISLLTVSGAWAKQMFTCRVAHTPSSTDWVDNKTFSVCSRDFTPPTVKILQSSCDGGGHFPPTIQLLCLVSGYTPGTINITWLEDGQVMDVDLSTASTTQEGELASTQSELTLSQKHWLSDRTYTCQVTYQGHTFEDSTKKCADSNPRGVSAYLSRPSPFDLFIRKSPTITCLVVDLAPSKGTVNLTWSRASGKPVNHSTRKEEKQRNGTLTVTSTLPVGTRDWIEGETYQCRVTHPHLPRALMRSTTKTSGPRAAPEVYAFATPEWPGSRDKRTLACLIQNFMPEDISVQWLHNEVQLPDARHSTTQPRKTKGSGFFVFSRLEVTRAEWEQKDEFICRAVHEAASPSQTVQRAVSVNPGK
sequence,measurement,setting,value
GGGGCACGTTTATCCGTCCCTCCTAGTGGCGTGCCCC [IgE aptamer 3MI-18],binding signal (fold fluorescence increase),[1]; n at position 18 is 3-methylisoxanthopterin replacing C [18 (3-methylisoxanthopterin replacing C)],1.5
GGGGCACGTTTATCCGTCCCTCCTAGTGGCGTGCCCC [IgE aptamer 2AP-18],binding signal (fold fluorescence increase),[2],5.6
GGGGCACGTTTATCCGTCCCTCCTAGTGGCGTGCCCC [IgE aptamer 6MAP-18],binding signal (fold fluorescence increase),[1]; n at position 18 is 6MAP replacing C [18 (6MAP replacing C)],1.9
